The values that follow come from ChEMBL document CHEMBL3769311, “The natural flavone fukugetin as a mixed-type inhibitor for human tissue kallikreins” (Bioorg Med Chem Lett, 2016).

Active and inactive are the calls of the source. No cut-off for these calls is given here.

Data set [1] concerns the target Kallikrein-1 (Homo sapiens) (UniProt P06870). The conditions noted are these: 2 to 10 uM.
Data set [2] concerns O=C1CC(c2ccc(O)c(O)c2)Oc2c1c(O)cc(O)c2[C@@H]1C(=O)c2c(O)cc(O)cc2O[C@H]1c1ccc(O)cc1. The conditions noted are these: Homo sapiens; 2 uM.
Description: Mixed-type inhibition of human tissue kallikrein-1 expressed in baculovirus infected insect cells using Abz-KLRSSQ-EDDnp as substrate assessed as enzyme Vmax at 2 uM by Lineweaver-Burk plot analysis
Data set [3] has the same test system. The note with it: Homo sapiens; 4 uM.
Description: Mixed-type inhibition of human tissue kallikrein-1 expressed in baculovirus infected insect cells using Abz-KLRSSQ-EDDnp as substrate assessed as enzyme Vmax at 4 uM by Lineweaver-Burk plot analysis
Data set [4] shares this test system. The note with it: Homo sapiens; 8 uM.
Description: Mixed-type inhibition of human tissue kallikrein-1 expressed in baculovirus infected insect cells using Abz-KLRSSQ-EDDnp as substrate assessed as enzyme Vmax at 8 uM by Lineweaver-Burk plot analysis
Data set [5] has the same test system. The conditions noted are these: Homo sapiens; 10 uM.
Description: Mixed-type inhibition of human tissue kallikrein-1 expressed in baculovirus infected insect cells using Abz-KLRSSQ-EDDnp as substrate assessed as enzyme Vmax at 10 uM by Lineweaver-Burk plot analysis
Data set [6] has the same test system. The conditions noted are these: Homo sapiens; 2 uM. This is another data set of the same source.
Description: Mixed-type inhibition of human tissue kallikrein-1 expressed in baculovirus infected insect cells using Abz-KLRSSQ-EDDnp as substrate assessed as substrate Km at 2 uM by Lineweaver-Burk plot analysis
The test system is the same in data set [7]. The note with it: Homo sapiens; 4 uM. The source holds these as a separate data set.
Description: Mixed-type inhibition of human tissue kallikrein-1 expressed in baculovirus infected insect cells using Abz-KLRSSQ-EDDnp as substrate assessed as substrate Km at 4 uM by Lineweaver-Burk plot analysis
The test system is the same in data set [8]. The conditions noted are these: Homo sapiens; 8 uM. The source holds these as a separate data set.
Description: Mixed-type inhibition of human tissue kallikrein-1 expressed in baculovirus infected insect cells using Abz-KLRSSQ-EDDnp as substrate assessed as substrate Km at 8 uM by Lineweaver-Burk plot analysis
For data set [9] the test system is unchanged. The note with it: Homo sapiens; 10 uM. This is another data set of the same source.
Description: Mixed-type inhibition of human tissue kallikrein-1 expressed in baculovirus infected insect cells using Abz-KLRSSQ-EDDnp as substrate assessed as substrate Km at 10 uM by Lineweaver-Burk plot analysis

As for `O=C1CC(c2ccc(O)c(O)c2)Oc2c1c(O)cc(O)c2[C@@H]1C(=O)c2c(O)cc(O)cc2O[C@H]1c1ccc(O)cc1` (some centres undefined), the inhibition result in [1] is “Active”.
In general, Vmax refers to the top rate of the reaction or transport when substrate is in excess. The term Km denotes the substrate concentration at which the rate is half of its maximum. Turning to Kallikrein-1 (Homo sapiens), P06870, the Vmax in data set [2] was found to be 387 µM/s; in data set [3], 285 µM/s; in data set [4] it was 201 µM/s; in data set [5] it was 160 µM/s. The Michaelis-Menten constant (Km) was found to be 0.8 µM in data set [6], 0.85 µM in data set [7], 0.93 µM in data set [8] and 1.12 µM in [9].
